Starred links: 1 amine or outer side, 2 acyl side, 3 side chain; linkers in the order of their positions; H or OH if unused. Non-standard residues stand in square brackets, D forms with d. Groups on a side chain read outwards from the residue. No end group written: not given here. *: point of attachment. C18 diacid = O=C(O)CCCCCCCCCCCCCCCCC(=O)*; γGlu = O=C(O)[C@H](CCC(=O)[*:2])N[*:1]; Ac4c = NC1(C(=O)O)CCC1; AEEA = NCCOCCOCC(=O)O; Aib = CC(C)(N)C(=O)O
What was measured:
human GLP-1 receptor [1] = biological target: T1, human GLP-1 receptor (human, UniProt P43220 24-463); experiment: cell-based or functional assay
human glucagon receptor [2] = biological target: T2, human glucagon receptor (human, UniProt P47871 26-477); experiment: cell-based or functional assay
T2 sequence (P47871 26-477): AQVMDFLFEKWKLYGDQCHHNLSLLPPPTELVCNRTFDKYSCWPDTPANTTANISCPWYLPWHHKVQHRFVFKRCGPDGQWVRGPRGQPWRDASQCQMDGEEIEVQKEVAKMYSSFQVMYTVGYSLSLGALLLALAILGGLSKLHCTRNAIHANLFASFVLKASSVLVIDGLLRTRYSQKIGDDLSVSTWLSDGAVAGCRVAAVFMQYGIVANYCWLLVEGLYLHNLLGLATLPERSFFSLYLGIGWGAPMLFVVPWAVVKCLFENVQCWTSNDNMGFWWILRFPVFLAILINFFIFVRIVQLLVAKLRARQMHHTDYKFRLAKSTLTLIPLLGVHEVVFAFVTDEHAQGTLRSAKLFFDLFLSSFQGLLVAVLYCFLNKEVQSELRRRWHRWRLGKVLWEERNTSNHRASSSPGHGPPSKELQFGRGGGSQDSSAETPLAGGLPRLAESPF

human GLP-1 receptor [3] = biological target: T1, human GLP-1 receptor; experiment: displacement of [125I]-GLP-1-(7-36)NH2 from BHK membranes with human GLP-1R, SPA, no serum albumin
human glucagon receptor [4] = biological target: T2, human glucagon receptor; experiment: displacement of [125I]-glucagon from BHK membranes with human glucagon receptor, SPA, no serum albumin

GLP-1R EC50 (pM) [Assay (I)(a)], CRE luciferase reporter, BHK cells (human GLP-1 receptor [1])	GlucagonR EC50 (pM), [Assay (I)(b)], CRE luciferase reporter, BHK cells (human glucagon receptor [2])	IC50 (human GLP-1 receptor [3])	IC50 (human glucagon receptor [4])	Binder
7 pM	8 pM	2.3 nM	6.9 nM	H[Aib]QGTFTSDYSKYLDLRRARDFVAWLIK([γGlu-γGlu-AEEA-AEEA-γGlu-C18 diacid])T-NH2 (N-terminus assumed; SMILES CC[C@H](C)[C@H](NC(=O)[C@H](CC(C)C)NC(=O)[C@H](Cc1c[nH]c2ccccc12)NC(=O)[C@H](C)NC(=O)[C@@H](NC(=O)[C@H](Cc1ccccc1)NC(=O)[C@H](CC(=O)O)NC(=O)[C@H](CCCNC(=N)N)NC(=O)[C@H](C)NC(=O)[C@H](CCCNC(=N)N)NC(=O)[C@H](CCCNC(=N)N)NC(=O)[C@H](CC(C)C)NC(=O)[C@H](CC(=O)O)NC(=O)[C@H](CC(C)C)NC(=O)[C@H](Cc1ccc(O)cc1)NC(=O)[C@H](CCCCN)NC(=O)[C@H](CO)NC(=O)[C@H](Cc1ccc(O)cc1)NC(=O)[C@H](CC(=O)O)NC(=O)[C@H](CO)NC(=O)[C@@H](NC(=O)[C@H](Cc1ccccc1)NC(=O)[C@@H](NC(=O)CNC(=O)[C@H](CCC(N)=O)NC(=O)C(C)(C)NC(=O)[C@@H](N)Cc1c[nH]cn1)[C@@H](C)O)[C@@H](C)O)C(C)C)C(=O)N[C@@H](CCCCNC(=O)CC[C@H](NC(=O)CC[C@H](NC(=O)COCCOCCNC(=O)COCCOCCNC(=O)CC[C@H](NC(=O)CCCCCCCCCCCCCCCCC(=O)O)C(=O)O)C(=O)O)C(=O)O)C(=O)N[C@H](C(N)=O)[C@@H](C)O, also called Chem. 33; Chem 33)
3 pM	66 pM	2.2 nM	7 nM	H[Aib]QGTFTSDYSKYLESRRAQDFVAWLIK([γGlu-γGlu-AEEA-AEEA-γGlu-C18 diacid])T-NH2 (N-terminus assumed; SMILES CC[C@H](C)[C@H](NC(=O)[C@H](CC(C)C)NC(=O)[C@H](Cc1c[nH]c2ccccc12)NC(=O)[C@H](C)NC(=O)[C@@H](NC(=O)[C@H](Cc1ccccc1)NC(=O)[C@H](CC(=O)O)NC(=O)[C@H](CCC(N)=O)NC(=O)[C@H](C)NC(=O)[C@H](CCCNC(=N)N)NC(=O)[C@H](CCCNC(=N)N)NC(=O)[C@H](CO)NC(=O)[C@H](CCC(=O)O)NC(=O)[C@H](CC(C)C)NC(=O)[C@H](Cc1ccc(O)cc1)NC(=O)[C@H](CCCCN)NC(=O)[C@H](CO)NC(=O)[C@H](Cc1ccc(O)cc1)NC(=O)[C@H](CC(=O)O)NC(=O)[C@H](CO)NC(=O)[C@@H](NC(=O)[C@H](Cc1ccccc1)NC(=O)[C@@H](NC(=O)CNC(=O)[C@H](CCC(N)=O)NC(=O)C(C)(C)NC(=O)[C@@H](N)Cc1c[nH]cn1)[C@@H](C)O)[C@@H](C)O)C(C)C)C(=O)N[C@@H](CCCCNC(=O)CC[C@H](NC(=O)CC[C@H](NC(=O)COCCOCCNC(=O)COCCOCCNC(=O)CC[C@H](NC(=O)CCCCCCCCCCCCCCCCC(=O)O)C(=O)O)C(=O)O)C(=O)O)C(=O)N[C@H](C(N)=O)[C@@H](C)O, also called Chem. 34; Chem 34)
4 pM	23 pM	0.1 nM	1.8 nM	H[Ac4c]QGTFTSDLSKYLESRRAREFVQWLIK([γGlu-γGlu-AEEA-AEEA-γGlu-γGlu-C18 diacid])T-NH2 (also called Chem. 13; Chem 13)

— patent US20170101454A1 (Novo Nordisk, published 2017)
